Biological target: biotinylated human D-ghrelin (octanoylated) (Homo sapiens) (UniProt Q9UBU3)
Experiment: pulldown
Details: 37 C, 1 mM Ca/Mg, 47% active

Sequence of UniProt Q9UBU3 (Q9UBU3 24-51): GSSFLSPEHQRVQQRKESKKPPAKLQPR

## CGUGUGAGGCAAUAAAACUUAAGUCCGAAGGUAACCAAUCCUACACG [SOT-C (B11trc, D-RNA)]
  Kd: 0.1 µM
